Key:
Test in all cases: SPR, captured via anti-human kappa, soluble ECD injected
[1] = target: T1, Soluble human HER-2 extracellular domain (ECD) protein (human, UniProt P04626 23-652)
T1 construct: extracellular domain; His-tagged

[2] = target: T2, Soluble human EGFR ECD protein (human, UniProt P00533 25-645)
T2 construct: extracellular domain; His-tagged

[3] = target: T3, Soluble human cMet extracellular domain (ECD) protein (human, UniProt P08581 25-932)
T3 construct: extracellular domain; His-tagged
T3 sequence (P08581 25-932): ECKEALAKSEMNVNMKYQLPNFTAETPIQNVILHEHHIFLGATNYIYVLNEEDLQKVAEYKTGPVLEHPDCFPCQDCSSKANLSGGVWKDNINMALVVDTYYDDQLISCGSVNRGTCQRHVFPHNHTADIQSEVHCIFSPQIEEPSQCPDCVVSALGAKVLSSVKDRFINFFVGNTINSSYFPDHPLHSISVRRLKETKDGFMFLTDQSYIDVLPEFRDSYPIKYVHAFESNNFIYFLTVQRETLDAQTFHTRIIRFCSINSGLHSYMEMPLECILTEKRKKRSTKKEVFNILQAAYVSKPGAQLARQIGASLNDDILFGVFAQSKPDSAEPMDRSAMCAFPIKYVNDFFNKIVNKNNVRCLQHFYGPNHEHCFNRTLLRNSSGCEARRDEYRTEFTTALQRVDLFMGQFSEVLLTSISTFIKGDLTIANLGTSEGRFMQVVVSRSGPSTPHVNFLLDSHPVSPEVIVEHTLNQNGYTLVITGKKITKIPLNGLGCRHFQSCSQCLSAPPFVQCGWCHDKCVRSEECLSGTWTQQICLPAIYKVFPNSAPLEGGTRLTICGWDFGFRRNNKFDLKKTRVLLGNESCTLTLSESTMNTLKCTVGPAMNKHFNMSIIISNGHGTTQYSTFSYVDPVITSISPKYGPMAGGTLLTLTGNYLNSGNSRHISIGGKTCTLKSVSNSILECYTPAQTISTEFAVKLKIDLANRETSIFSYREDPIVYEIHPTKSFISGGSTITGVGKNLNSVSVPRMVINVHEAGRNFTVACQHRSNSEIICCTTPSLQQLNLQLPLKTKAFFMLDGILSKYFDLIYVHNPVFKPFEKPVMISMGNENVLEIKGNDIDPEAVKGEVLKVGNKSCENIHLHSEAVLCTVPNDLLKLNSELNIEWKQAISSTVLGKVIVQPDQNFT

Kd [1]: 700 pM | koff [1]: 0.00021 s⁻¹ | kon [1]: 300000 M⁻¹ s⁻¹ | Kd [2]: 10000 pM | koff [2]: 0.0058 s⁻¹ | kon [2]: 560000 M⁻¹ s⁻¹ | Kd [3]: 540 pM | koff [3]: 0.00014 s⁻¹ | kon [3]: 260000 M⁻¹ s⁻¹
B1: HER-2 X EGFR X cMet TsAb_HHL (other)
heavy: EVQLVESGGGLVQPGGSLRLSCAASGFTFTDYTMDWVRKAPGKGLEWVADVNPNSGGSIYNQEFKGRFTLSVDRSKNTLYLQMNSLRAEDTAVYYCARNLGPSFYFDYWGQGTLVTVSSASTKGPSVFPLAPSSKSTSGGTAALGCLVKDYFPEPVTVSWNSGALTSGVATGPAVLQSSGLYSLSSVVTVPSSSLGTQTYICNVNHKPSNTKVDKKVEPKSCGGGGSGGGGSGGGGSQVQLVQSGAEVKKPGASVKVSCKASGYTFTSHWMHWVRYAPGQGLEWIGEFNPSNGRTNYNEKFKSKATMTVDTSTNTAYMELSSLRSEDTAVYYCASRDYDYDGRYFDYWGQGTLVTVSSASTKGPSVFPLAPCSKSTSGGTAALGCLVKDYFPEPVTVSWNSGALTSGVHTFPAVLQSSGLYSLSSVVTVPSSSLGTQTYICNVNHKPSNTKVDKKVEPDSGGGGGSGGGGSGGGGSDIQMTQSPSSLSASVGDRVTITCKSSQSLLYTSSQKNYLAWYQQKPGDAPKLLIYWASTRESGVPSRFSGSGSGTDFTLTISSLQPEDFATYYCQQYYAYPWTFGQGTKVEIKRTVAAPSVFIFPPSDKQLKSGTARVVCLLNNFYPREAKVQWKVDNALQSGNSQESVTEQDSKDSTYSLISTLTLSKADYEKHKVYACEVTHQGLSSPVTKSFNRGECHHHHHHHH
light 1: RIQMTQSPSSLSASVGDRVTITCKASQDVSIGVAWYQDKPGKAPKLLIYSASYRYTGVPSRFSGSGSGTDFTLTISSLQPEDFATYYCQQYYIYPYTFGQGTKVEIKGQPKAAPSVTLFPPSSEELQANKATLVCYISDFYPGAVTVAWKADSSPVKAGVETTTPSKQSNNKYAAWSYLSLTPEQWKSHRSYSCQVTHEGSTVEKTVAPTEC
light 2: DIQMTQSPSSLSASVGDRVTITCSASSSVTYMYWYQRKPGKAPKLLIYDTSNLASGVPSRFSGSGSGTDYTFTISSLQPEDIATYYCQQWSSHIFTFGQGTKVEIKRTVAAPSVFIFPPSKEQLKSGTASVVCLLNNFYPREAKVQWKVDNALQSGNSQESVTEQDSKDSTYSLSSTLTLSKADYEKHKVYACEVTHQGLSSPVTKSFNRGEC
chain: EVQLVESGGGLVQPGGSLRLSCAASGYTFTSYWLHWVRQAPGKGLEWVGMIDPSNSDTRFNPNFKDRFTISADTSKNTAYLQMNSLRAEDTAVYYCATYRSYVTPLDYWGRGTLVTVSSASTKGPSVFPLAPSSKSTSGGTAALGCLVADYFPEPVTVSWNSGALTSGVHTFPAVLQSSGLYSLSSVVTVPSSSLGTQTYICNVNHKPSNTKVDERVEPKSC
notes: Tandem Fab trispecific antibody without Fc

Reference: patent US20240132626A1 (Eli Lilly, published 2024)
